Measured values reported in patent publication US12428446B2, “Peptide compound or pharmaceutically acceptable salt thereof” (Eyebio Korea, priority 2019, dated 2025).
*1 amine or outer side, *2 acyl side, *3 side chain or, on linkers, in order; H or OH if unused. Primed or numbered codes have the meaning given here. Where no end group is shown, it is not given here. [ ]: non-standard residue; d: D form. The star is where a group is joined. Pro(trans-4-NH2) = O=C([C@@H]1C[C@@H](N[*:3])CN1[*:1])[*:2]; Pro(4-methylene) = C=C1CN[C@H](C(=O)O)C1; Pro(4,4-F2) = O=C(O)[C@@H]1CC(F)(F)CN1; Pro(4,4-Me2) = CC1(C)CN[C@H](C(=O)O)C1; Asu′ = aspartimide (aminosuccinimide); Hyp = O=C(O)[C@@H]1C[C@@H](O)CN1; dHyp = O=C(O)[C@H]1C[C@H](O)CN1; Aib = CC(C)(N)C(=O)O; OiPr = CC(C)O*

Experiment: Evaluation of dissolution stability (content change on storage in dissolved state)
Type: physicochemical
Settings: 1 mg/1 ml dissolved state, 40° C. and RH 75%

Substance: Hyp-Gly-Gln-Ala-Gly-Leu-Ala ([Hyp]GQAGLA) [Example 14]
- Day 1 content (%): 96.58%
- Day 3 content (%): 96.07%
- Day 7 content (%): 95.55%
- Initial content (%): 97.13%

Substance: Hyp-Gly-Gln-Asp-Ala-Leu-Ala ([Hyp]GQDALA) [Example 39]
- Day 1 content (%): 91.76%
- Day 3 content (%): 88.16%
- Day 7 content (%): 85.50%
- Initial content (%): 93.03%

Substance: Hyp-Gly-Gln-Glu-Leu-Leu ([Hyp]GQELL) [Example 88]
- Day 1 content (%): 98.94%
- Day 3 content (%): 98.07%
- Day 7 content (%): 97.37%
- Initial content (%): 99.23%

Substance: Hyp-Gly-Gln-Glu-Gly-Leu ([Hyp]GQEGL) [Example 68]
- Day 1 content (%): 98.25%
- Day 3 content (%): 97.51%
- Day 7 content (%): 96.93%
- Initial content (%): 98.71%

Substance: Hyp-Gly-Gln-Leu-Val-Leu ([Hyp]GQLVL) [Example 99]
- Day 1 content (%): 99.44%
- Day 3 content (%): 99.28%
- Day 7 content (%): 99.15%
- Initial content (%): 99.45%

Substance: Hyp-Gly-Gln-Asp-Gly-Pro-Lys ([Hyp]GQDGPK) [Example 28]
- Day 1 content (%): 98.50%
- Day 3 content (%): 97.37%
- Day 7 content (%): 96.19%
- Initial content (%): 99.14%

Substance: Hyp-Leu-Gln-Asp-Gly ([Hyp]LQDG) [Example 75]
- Day 1 content (%): 91.10%
- Day 3 content (%): 75.24%
- Day 7 content (%): 61.06%
- Initial content (%): 98.53%

Substance: 4,4-dimethyl Pro-Gly-Gln-Asp-Gly-Leu-Ala ([Pro(4,4-Me2)]GQDGLA) [Example 57]
- Day 1 content (%): 75.20%
- Day 3 content (%): 71.82%
- Day 7 content (%): 53.88%
- Initial content (%): 91.95%

Substance: trans-4NH2-Pro-Gly-Gln-Asp-Gly ([Pro(trans-4-NH2)]GQDG) [Example 42]
- Day 1 content (%): 65.09%
- Day 3 content (%): 52.07%
- Day 7 content (%): 37.87%
- Initial content (%): 71.84%

Substance: Hyp-Gly-Gln-Asp-Val-Leu [Example 22] ([Hyp]GQDVL)
- Day 1 content (%): 85.47%
- Day 3 content (%): 83.10%
- Day 7 content (%): 82.67%
- Initial content (%): 88.14%

Substance: Hyp-Gly-Gln-Asu-Gly (isopropyl ester) [Example 109]
- Day 1 content (%): 79.15%
- Day 3 content (%): 69.45%
- Day 7 content (%): 59.07%
- Initial content (%): 85.34%

Substance: Hyp-Gly-Gln-Asp-Gly-D Leu-Ala ([Hyp]GQDG[dL]A) [Example 65]
- Day 1 content (%): 92.97%
- Day 3 content (%): 86.96%
- Day 7 content (%): 75.40%
- Initial content (%): 95.64%

Substance: Hyp-Gly-Gln-Asu-Gly-Leu-Ala (isopropyl ester) [Example 113]
- Day 1 content (%): 92.40%
- Day 3 content (%): 85.41%
- Day 7 content (%): 72.35%
- Initial content (%): 93.25%

Substance: Hyp-Gly-Gln-Asu-Gly-Leu-Ala ([Hyp]GQ[Asu′]GLA) [Example 102]
- Day 1 content (%): 90.18%
- Day 3 content (%): 85.07%
- Day 7 content (%): 81.09%
- Initial content (%): 92.47%

Substance: Hyp-Gly-Gln-Leu-Leu-Leu ([Hyp]GQLLL) [Example 98]
- Day 1 content (%): 99.07%
- Day 3 content (%): 98.86%
- Day 7 content (%): 98.74%
- Initial content (%): 99.03%

Substance: Hyp-Gly-Leu-Ala-Gly-Pro-Lys ([Hyp]GLAGPK) [Example 27]
- Day 1 content (%): 98.16%
- Day 3 content (%): 98.15%
- Day 7 content (%): 98.16%
- Initial content (%): 98.24%

Substance: 4,4-dimethyl Pro-Gly-Gln-Asp-Gly-Leu ([Pro(4,4-Me2)]GQDGL) [Example 56]
- Day 1 content (%): 84.52%
- Day 3 content (%): 79.98%
- Day 7 content (%): 51.41%
- Initial content (%): 90.94%

Substance: Hyp-Gly-Gln-Ala-Leu ([Hyp]GQAL) [Example 120]
- Day 1 content (%): 98.87%
- Day 3 content (%): 98.73%
- Day 7 content (%): 98.44%
- Initial content (%): 99.07%

Substance: 4-methylene-Pro-Gly-Gln-Asp-Gly-Leu-Ala ([Pro(4-methylene)]GQDGLA) [Example 54]
- Day 1 content (%): 83.66%
- Day 3 content (%): 73.59%
- Day 7 content (%): 62.48%
- Initial content (%): 95.42%

Substance: Hyp-Gly-Gln-Asp-Ala-Leu ([Hyp]GQDAL) [Example 36]
- Day 1 content (%): 94.13%
- Day 3 content (%): 90.58%
- Day 7 content (%): 85.95%
- Initial content (%): 95.40%

Substance: Hyp-Gly-Gln-Leu-Gly-Leu-Ala-Gly ([Hyp]GQLGLAG) [Example 17]
- Day 1 content (%): 96.53%
- Day 3 content (%): 96.69%
- Day 7 content (%): 96.27%
- Initial content (%): 96.55%

Substance: Hyp-Gly-Gln-Asp-Val-Leu-Ala ([Hyp]GQDVLA) [Example 23]
- Day 1 content (%): 95.25%
- Day 3 content (%): 94.22%
- Day 7 content (%): 90.56%
- Initial content (%): 96.40%

Substance: 4,4-difluoro-Pro-Gly-Gln-Asp-Gly-Leu-Ala ([Pro(4,4-F2)]GQDGLA) [Example 53]
- Day 1 content (%): 87.14%
- Day 3 content (%): 76.02%
- Day 7 content (%): 62.88%
- Initial content (%): 94.88%

Substance: D Hyp-Gly-Gln-Asp-Gly-Leu-Ala ([dHyp]GQDGLA) [Example 50]
- Day 1 content (%): 89.44%
- Day 3 content (%): 80.15%
- Day 7 content (%): 56.11%
- Initial content (%): 96.67%

Substance: Hyp-Gly-Gln-Asp-Aib ([Hyp]GQD[Aib]) [Example 85]
- Day 1 content (%): 92.08%
- Day 3 content (%): 88.07%
- Day 7 content (%): 75.04%
- Initial content (%): 92.62%

Substance: Hyp-Gly-Gln-Asp-Leu-Leu-Ala ([Hyp]GQDLLA) [Example 38]
- Day 1 content (%): 92.19%
- Day 3 content (%): 88.19%
- Day 7 content (%): 85.93%
- Initial content (%): 97.06%

Substance: 4,4-difluoro-Pro-Gly-Gln-Asp-Gly ([Pro(4,4-F2)]GQDG) [Example 43]
- Day 1 content (%): 86.75%
- Day 3 content (%): 65.09%
- Day 7 content (%): 48.43%
- Initial content (%): 99.47%

Substance: Hyp-Gly-Gln-Ala-Gly-Leu ([Hyp]GQAGL) [Example 122]
- Day 1 content (%): 98.66%
- Day 3 content (%): 98.56%
- Day 7 content (%): 98.27%
- Initial content (%): 98.82%

Substance: DGLAGPK [Example 19]
- Day 1 content (%): 89.94%
- Day 3 content (%): 79.26%
- Day 7 content (%): 71.50%
- Initial content (%): 95.90%

Substance: Hyp-Gly-Gln-Glu-Gly-Leu-Ala ([Hyp]GQEGLA) [Example 69]
- Day 1 content (%): 96.94%
- Day 3 content (%): 96.32%
- Day 7 content (%): 95.69%
- Initial content (%): 97.12%

Substance: Hyp-Val-Gln-Asp-Gly ([Hyp]VQDG) [Example 74]
- Day 1 content (%): 92.95%
- Day 3 content (%): 85.57%
- Day 7 content (%): 79.66%
- Initial content (%): 98.01%

Substance: Hyp-Gly-Gln-Asp (isopropyl ester)-Gly-Leu (isopropyl ester) [Example 112]
- Day 1 content (%): 92.78%
- Day 3 content (%): 86.07%
- Day 7 content (%): 80.91%
- Initial content (%): 95.34%

Substance: Pro-Gly-Gln-Asp-Gly (PGQDG) [Example 76]
- Day 1 content (%): 90.01%
- Day 3 content (%): 82.34%
- Day 7 content (%): 69.13%
- Initial content (%): 95.07%

Substance: GQDGLA [Example 29]
- Day 1 content (%): 93.74%
- Day 3 content (%): 92.16%
- Day 7 content (%): 90.82%
- Initial content (%): 95.19%

Substance: Hyp-Gly-Gln-Ala-Gly ([Hyp]GQAG) [Example 13]
- Day 1 content (%): 98.39%
- Day 3 content (%): 98.04%
- Day 7 content (%): 97.64%
- Initial content (%): 98.51%

Substance: Hyp-Gly-Gln-Ala-Val-Leu ([Hyp]GQAVL) [Example 124]
- Day 1 content (%): 99.22%
- Day 3 content (%): 99.11%
- Day 7 content (%): 98.97%
- Initial content (%): 99.40%

Substance: Hyp-Gly-Gln-His-Gly-Leu ([Hyp]GQHGL) [Example 82]
- Day 1 content (%): 92.51%
- Day 3 content (%): 85.09%
- Day 7 content (%): 79.04%
- Initial content (%): 97.54%

Substance: Hyp-Gly-Gln-Asp (isopropyl ester)-Gly-Leu ([Hyp]GQD(OiPr)GL) [Example 116]
- Day 1 content (%): 85.82%
- Day 3 content (%): 84.31%
- Day 7 content (%): 83.50%
- Initial content (%): 88.64%

Substance: Hyp-Gly-Gln-Asp (isopropyl ester)-Gly-Leu-Ala ([Hyp]GQD(OiPr)GLA) [Example 117]
- Day 1 content (%): 90.61%
- Day 3 content (%): 85.37%
- Day 7 content (%): 76.88%
- Initial content (%): 94.77%

Substance: GLAGPK [Example 26]
- Day 1 content (%): 89.41%
- Day 3 content (%): 87.99%
- Day 7 content (%): 85.43%
- Initial content (%): 92.17%

Substance: Hyp-Gly-Gln-Asp (isopropyl ester)-Gly (isopropyl ester) [Example 110]
- Day 1 content (%): 85.18%
- Day 3 content (%): 72.44%
- Day 7 content (%): 91.84%
- Initial content (%): 98.00%

Substance: Hyp-Gly-Gln-Asp-Gly-Leu-Ala ([Hyp]GQDGLA) [Example 12]
- Day 1 content (%): 89.90%
- Day 3 content (%): 79.04%
- Day 7 content (%): 58.75%
- Initial content (%): 95.31%

Substance: [dHyp]GQDG [Example 40]
- Day 1 content (%): 81.96%
- Day 3 content (%): 70.04%
- Day 7 content (%): 51.11%
- Initial content (%): 89.95%

Substance: Hyp-Gly-Gln-Aib-Gly-Leu ([Hyp]GQ[Aib]GL) [Example 84]
- Day 1 content (%): 97.91%
- Day 3 content (%): 97.29%
- Day 7 content (%): 96.49%
- Initial content (%): 97.78%

Substance: trans-4NH2-Pro-Gly-Gln-Asp-Gly-Leu ([Pro(trans-4-NH2)]GQDGL) [Example 47]
- Day 1 content (%): 84.03%
- Day 3 content (%): 75.02%
- Day 7 content (%): 51.42%
- Initial content (%): 94.90%
